Test results published in PMC5665649 (eLife, 2017).
Read-outs that look alike come from different tables or passages of the source.

Assays:
[1] = target: GluA2 amino terminal domain (ATD), DyLight 488-labeled; test: AUC; direct Lamm equation fits, done here, of previously reported SV data for GluA2 (Zhao et al., 2013d) and GluA3 (Zhao et al., 2012); homodimer
[2] = target: GluA2 amino terminal domain (ATD), DyLight 488-labeled; test: AUC; homodimer KD of GluA2 as given in Table 2 under UL GluA2 and DL-GluA2; the experiment itself is not described in this paper
[3] = target: EGFP-GluA1 amino terminal domain fusion protein (UniProt P19490); test: AUC; FDS-SV titration for hetero-dimerization: constant low concentration (50 pM-1 nM) of the ATD carrying the fluorophore, unlabeled partner from 0.2 nM up to µM; sw isotherm fit with coupled competitive homo- and hetero-dimerization model, homodimer KD fixed; 20 °C, 50,000 rpm, 0.1 mg/mL BSA
[4] = target: GluA3 amino terminal domain (ATD), unlabeled; test: AUC; direct Lamm equation fits, done here, of previously reported SV data for GluA2 (Zhao et al., 2013d) and GluA3 (Zhao et al., 2012); homodimer
[5] = target: EGFP-GluA4 amino terminal domain fusion protein (UniProt P19493); test: AUC; FDS-SV titration for hetero-dimerization: constant low concentration (50 pM-1 nM) of the ATD carrying the fluorophore, unlabeled partner from 0.2 nM up to µM; sw isotherm fit with coupled competitive homo- and hetero-dimerization model, homodimer KD fixed; 20 °C, 50,000 rpm, 0.1 mg/mL BSA
[6] = target: GluA2 amino terminal domain (ATD), DyLight 488-labeled; test: as above
[7] = target: GluK2 ATD (Rattus norvegicus) (UniProt P42260); settings: cited from earlier work
[8] = target: GluK1 amino terminal domain (ATD) G213N/M215T, DyLight 488-labeled; test: AUC; fluorescence-detected sedimentation velocity (FDS-SV), tracer titration for self-association: 0.2-1 nM DyLight 488-labeled ATD with a series of the same unlabeled ATD; sw isotherm fit with monomer-dimer model (dimer to monomers); 20 °C, 50,000 rpm, 0.1 mg/mL BSA
[9] = target: GluK2 amino terminal domain (ATD) G215N/M217T, DyLight 488-labeled (UniProt P42260); test: AUC; FDS-SV titration for hetero-dimerization: constant low concentration (50 pM-1 nM) of the ATD carrying the fluorophore, unlabeled partner from 0.2 nM up to µM; sw isotherm fit with coupled competitive homo- and hetero-dimerization model, homodimer KD fixed; 20 °C, 50,000 rpm, 0.1 mg/mL BSA
[10] = target: GluK1 amino terminal domain (ATD) G213N/M215T, DyLight 488-labeled; test: as above
[11] = target: GluK4 amino terminal domain (ATD), unlabeled (UniProt Q01812); test: AUC; sedimentation velocity with absorbance detection at 280 nm, unlabeled GluK4 0.3-29 µM; 20 °C, 50,000 rpm
[12] = target: GluK5 ATD (Rattus norvegicus) (UniProt Q63273); settings: cited from earlier work
[13] = target: T1, GluK2 amino terminal domain (ATD) G215N/M217T, DyLight 488-labeled (UniProt P42260 32-420, G215N | M217T, DyLight 488 (NHS ester-activated), labeling ratios typically 0.9-1.3, sites not stated); test: AUC; fluorescence-detected sedimentation velocity (FDS-SV), tracer titration for self-association: 0.2-1 nM DyLight 488-labeled ATD with a series of the same unlabeled ATD; sw isotherm fit with monomer-dimer model (dimer to monomers); 20 °C, 50,000 rpm, 0.1 mg/mL BSA; settings: both partners purified
T1 construct: signal peptide in the construct; GluK2 kainate receptor ATD cDNA with native signal peptide, last residue Lys389; N-linked glycosylation site inserted in the lateral face; Same construct as m3, chemically labeled; also called DL-GluK2; DyLight 488-labeled GluK2; source: HEK cell suspension cultures, transient transfection (PEI), secreted into medium; purified (Ni2+ HiTrap chelating, thrombin …)
T1 sequence (looked up): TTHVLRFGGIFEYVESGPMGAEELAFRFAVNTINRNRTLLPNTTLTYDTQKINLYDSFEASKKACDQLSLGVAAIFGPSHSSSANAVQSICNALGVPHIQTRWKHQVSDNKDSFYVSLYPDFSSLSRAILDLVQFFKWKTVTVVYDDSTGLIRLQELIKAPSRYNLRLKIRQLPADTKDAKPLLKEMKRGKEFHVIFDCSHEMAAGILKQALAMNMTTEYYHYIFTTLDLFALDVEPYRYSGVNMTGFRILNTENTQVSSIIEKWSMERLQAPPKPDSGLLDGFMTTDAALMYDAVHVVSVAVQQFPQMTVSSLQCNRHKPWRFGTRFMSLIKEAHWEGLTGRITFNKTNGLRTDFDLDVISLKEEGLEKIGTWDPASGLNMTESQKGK

[14] = target: T2, GluK5 amino terminal domain (ATD), DyLight 488-labeled; test: AUC; FDS-SV titration for hetero-dimerization: constant low concentration (50 pM-1 nM) of the ATD carrying the fluorophore, unlabeled partner from 0.2 nM up to µM; sw isotherm fit with coupled competitive homo- and hetero-dimerization model, homodimer KD fixed; 20 °C, 50,000 rpm, 0.1 mg/mL BSA
T2 sequence (Q63273 whole entry, species assumed, looked up): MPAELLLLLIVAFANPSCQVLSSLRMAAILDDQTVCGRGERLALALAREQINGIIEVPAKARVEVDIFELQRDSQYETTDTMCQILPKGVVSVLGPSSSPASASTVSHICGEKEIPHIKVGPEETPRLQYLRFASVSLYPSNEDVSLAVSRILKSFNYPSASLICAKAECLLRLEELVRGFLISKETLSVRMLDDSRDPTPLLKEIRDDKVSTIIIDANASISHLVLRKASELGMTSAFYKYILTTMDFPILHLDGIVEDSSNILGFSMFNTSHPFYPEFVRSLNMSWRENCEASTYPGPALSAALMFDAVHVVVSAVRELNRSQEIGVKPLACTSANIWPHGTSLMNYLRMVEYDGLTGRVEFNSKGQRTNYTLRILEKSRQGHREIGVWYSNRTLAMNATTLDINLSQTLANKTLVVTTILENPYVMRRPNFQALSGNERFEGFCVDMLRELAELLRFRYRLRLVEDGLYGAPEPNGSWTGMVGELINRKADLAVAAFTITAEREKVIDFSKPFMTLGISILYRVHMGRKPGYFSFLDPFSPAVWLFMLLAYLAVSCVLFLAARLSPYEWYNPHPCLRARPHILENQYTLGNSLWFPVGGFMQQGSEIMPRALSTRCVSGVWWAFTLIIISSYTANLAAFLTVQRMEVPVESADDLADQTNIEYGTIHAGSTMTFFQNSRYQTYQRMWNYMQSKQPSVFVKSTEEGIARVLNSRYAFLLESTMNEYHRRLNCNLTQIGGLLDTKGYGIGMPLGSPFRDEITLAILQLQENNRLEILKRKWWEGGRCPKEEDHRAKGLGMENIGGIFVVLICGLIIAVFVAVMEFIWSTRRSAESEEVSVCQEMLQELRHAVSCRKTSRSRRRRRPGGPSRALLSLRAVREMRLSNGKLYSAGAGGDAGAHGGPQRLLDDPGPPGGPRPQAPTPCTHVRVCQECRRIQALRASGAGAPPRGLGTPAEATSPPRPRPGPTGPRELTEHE

[15] = target: the molecule itself; test: AUC; FDS-SV, dilution series of the fluorescent protein alone (DyLight 488-GluK3 50 pM-1.2 µM; EGFP-GluA1 100 pM-1.2 µM; EGFP-GluA4 500 pM-1.2 µM); c(s) and sw isotherm, monomer-dimer model (dimer to monomers); 20 °C, 50,000 rpm, 0.1 mg/mL BSA
[16] = target: the molecule itself; test: as above; remark: listed apart in the source
[17] = target: the molecule itself; test: as above; remark: listed apart in the source

Chain of EGFP-GluA4 amino terminal domain fusion protein (P19493 21-413): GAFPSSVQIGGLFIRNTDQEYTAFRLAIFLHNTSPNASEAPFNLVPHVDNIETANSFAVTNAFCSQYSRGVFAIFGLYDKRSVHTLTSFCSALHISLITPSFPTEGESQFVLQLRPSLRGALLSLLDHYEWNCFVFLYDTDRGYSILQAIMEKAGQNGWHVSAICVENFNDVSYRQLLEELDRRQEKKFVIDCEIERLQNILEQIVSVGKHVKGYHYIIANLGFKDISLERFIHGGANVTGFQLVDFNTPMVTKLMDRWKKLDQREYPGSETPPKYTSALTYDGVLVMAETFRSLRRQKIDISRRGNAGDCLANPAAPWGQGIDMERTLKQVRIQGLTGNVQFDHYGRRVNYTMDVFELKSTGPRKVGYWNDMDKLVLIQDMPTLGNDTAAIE

“GluA2 amino terminal domain (ATD), unlabeled (domain or fragment)” showed a koff [1] of over 0.003 s⁻¹, a kon [1] of over 140000 M⁻¹ s⁻¹ and a Kd [2] of 0.0211 µM. For the same molecule, the Kd [3] was 0.0029 µM.

Molecule “GluA3 amino terminal domain (ATD), unlabeled (domain or fragment)” has a koff [4] of over 0.003 s⁻¹, a Kd [3] of 0.0083 µM and a Kd [5] of 0.091 µM. For the same molecule, the Kd [6] was 0.0013 µM.

For GluK2 ATD (from UniProt P42260), the Kd [7] is listed as 0.25 µM.

Work on “GluK1 amino terminal domain (ATD) G213N/M215T, unlabeled (domain or fragment)” yielded a Kd [8] of 1.2 µM.

Molecule “GluK5 amino terminal domain (ATD), unlabeled (domain or fragment)” has a Kd [9] of 0.012 µM and a Kd [10] of 0.018 µM.

With “GluK4 amino terminal domain (ATD), unlabeled (from UniProt Q01812 21-399) (domain or fragment)” the Kd [11] was over 1000 µM, the Kd [9] was 0.057 µM and the Kd [10] was 0.146 µM.

In the case of GluK5 ATD (from UniProt Q63273), the Kd [12] is given as 350 µM.

B1: GluK2 amino terminal domain (ATD) G215N/M217T, unlabeled (domain or fragment, UniProt P42260 32-420, looked up)
chain: T1 sequence (looked up)
notes: signal peptide in the construct; GluK2 kainate receptor ATD cDNA with native signal peptide, last residue Lys389; N-linked glycosylation site inserted in the lateral face; also called UL GluK2; GluK2 ATD; source: HEK cell suspension cultures, transient transfection (PEI), secreted into medium; purified (Ni2+ HiTrap chelating, thrombin digestion, ion exchange)
For B1, the Kd [13] was 0.163 µM, the Kd [14] was 0.0094 µM and the Kd [10] was 1.8 µM.

B2: GluK3 amino terminal domain (ATD) T221N/Y223S, DyLight 488-labeled (domain or fragment, UniProt P42264 32-423, looked up)
chain: MPHVIRIGGIFEYADGPNAQVMNAEEHAFRFSANIINRNRTLLPNTTLTYDIQRIHFHDSFEATKKACDQLALGVVAIFGPSQGSCTNAVQSICNALEVPHIQLRWKHHPLDNKDTFYVNLYPDYASLSHAILDLVQSLKWRSATVVYDDSTGLIRLQELIMAPSRYNIRLKIRQLPIDSDDSRPLLKEMKRGREFRIIFDCSHTMAAQILKQAMAMGMMNESYHFIFTTLDLYALDLEPYRYSGVNLTGFRILNVDNAHVSAIVEKWSMERLQAAPRAESGLLDGVMMTDAALLYDAVHIVSVCYQRASQMTVNSLQCHRHKPWRFGGRFMNFIKEAQWEGLTGRIVFNKTSGLRTDFDLDIISLKEDGLEKVGVWSPADGLNITEVAKGR
modifications: DyLight 488 (NHS ester-activated), labeling ratios typically 0.9-1.3, sites not stated
notes: signal peptide in the construct; GluK3 kainate receptor ATD cDNA with native signal peptide, last residue Arg392; N-linked glycosylation site inserted in the lateral face; also called DL-GluK3; DL GluK3; source: HEK cell suspension cultures, transient transfection (PEI), secreted into medium; purified (Ni2+ HiTrap chelating, thrombin digestion, ion exchange); labeled, Superdex 75
In the case of B2, the “stoichiometry N” value [15] is reported as 2 and the Kd [16] is reported as under 0.05 nM.

B3: EGFP-GluA1 amino terminal domain fusion protein (domain or fragment, UniProt P19490 19-21, looked up)
chain: VGANFPNNIQIGGLFPNQQSQEHAAFRFALSQLTEPPKLLPQIDIVNISDSFEMTYRFCSQFSKGVYAIFGFYERRTVNMLTSFCGALHVCFITPSFPVDTSNQFVLQLRPELQEALISIIDHYKWQTFVYIYDADRGLSVLQRVLDTAAEKNWQVTAVNILTTTEEGYRMLFQDLEKKKERLVVVDCESERLNAILGQIVKLEKNGIGYHYILANLGFMDIDLNKFKESGANVTGFQLVNYTDTIPARIMQQWRTSDSRDHTRVDWKRPKYTSALTYDGVKVMAEAFQSLRRQRIDISRRGNAGDCLANPAVPWGQGIDIQRALQQVRFEGLTGNVQFNEKGRRTNYTLHVIEMKHDGIRKIGYWNEDDKFVPAATDAQAGGDNSSVQ
notes: signal peptide in the construct; GluA1 signal peptide and ATD, residues Met1-Phe21, before SGSG-EGFP; GluA1 AMPA receptor ATD, residues Val17-Gln405, after EGFP-SGSG; The two printed ranges overlap (17-21); also called GluA1 ATD-EGFP; GluA1-EGFP fusion protein; source: Sf9 insect cells, baculovirus (pFastBac1), secreted into medium; purified (Ni2+ HiTrap chelating, thrombin digestion, ion …)
Work on B3 yielded a Kd [17] of 0.0284 µM.
